# Results from US20100260668A1 (published 2010).
# Several values for one entry are separate records, joined by “and”; a condition that tells them apart may be missing. Equal values may be shown once.
# T1: PlGF (UniProt P49763-2 21-149, limits assumed)
# T1 construct: bought antigen coated on the ELISA plate; also called Placental GF
# T1 sequence (looked up): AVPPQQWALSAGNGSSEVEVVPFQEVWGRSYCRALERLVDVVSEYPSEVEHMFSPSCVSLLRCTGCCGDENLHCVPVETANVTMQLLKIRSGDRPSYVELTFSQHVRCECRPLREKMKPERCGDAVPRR
# B1: DVD041 (bispecific antibody, human IgG1, lambda)
# heavy: not shown
# light: DIQMTQSPSSLSASVGDRVTITCSASQDISNYLNWYQQKPGKAPKVLIYFTSSLHSGVPSRFSGSGSGTDFTLTISSLQPEDFATYYCQQYSTVPWTFGQGTKVEIKRTVAAPQSVLTQPPSVSAAPGQKVTISCSGSSSNIENNHVSWYQQLPGTAPKLLIYDNNKRPSGIPDRFSGSKSGTSATLGITGLQTGDEADYYCETWDTSLSAGRVFGGGTKLTVLGQPKAAPSVTLFPPSSEELQANKATLVCLISDFYPGAVTVAWKADSSPVKAGVETTTPSKQSNNKYAASSYLSLTPEQWKSHRSYSCQVTHEGSTVEKTVAPTECS
# B2: AB063 (antibody, human IgG1, kappa, V domains shown)
# VH: EVQLVESGGGLVQPGGSLRLSCAASGFTFSIYSMNWVRQAPGKGLEWVSYISSSSSTIYYADSVKGRFTISRDNAKNSLYLQMNSLRDEDTAVYYCARDRGDFDAFDIWGQGTMVTVSS
# VL: DIQMTQSPSSLSASVGDRVTITCQASQDITNYLNWYQQKPGKAPKLLIYDASNLETGVPSRFSGSGSGTDFTFTISSLQPEDIATYNCQQCENFPITFGQGTRLEIKR
# B3: AB012 (antibody, human IgG1, kappa, V domains shown)
# VH: QVQLVESGGGLVKPGGSLRLSCAASGFTFSDYYMSWIRQAPGKGLEWVSYISSSGSTIYYADSVKGRFTISRDNAKNSLYLQMNSLRAEDTAVYYCARDEYNSGWYVLFDYWGQGTLVTVSS
# VL: DIQMTQSPSSVSASVGDRVTITCRASQGISSWLAWYQQKPGKAPNLLIYEASSLQSGVPSRFGGSGSGTDFTLTISSLQPEDFATYYCQQANGFPWTFGQGTKVEIKR
# notes: Vectors V1/V2
# B4: AB010 (antibody, human IgG1, lambda, V domains shown)
# VH: QVQLVQSGAEVKKPGASVKVSCKASGYTFTSYDINWVRQATGQGLEWMGWMNPNSGNTGYAQKFQGRVTMTRNTSISTAYMELSSLRSEDTAVYYCARDPYYYYYGMDVWGQGTTVTVSS
# VL: QSVLTQPPSVSAAPGQKVTISCSGSSSNIENNHVSWYQQLPGTAPKLLIYDNNKRPSGIPDRFSGSKSGTSATLGITGLQTGDEADYYCETWDTSLSAGRVFGGGTKLTVLG
# B5: DVD048 (RON (seq. 1) and VEGF (seq. 1) DVD-Ig) (bispecific antibody, IgG1)
# VH: EVQLVQSGGGLVKPGGSLRLSCAASGFTFSSYAMHWVRQAPGKGLEWVAVISYDGSNKYYADSVKGRFTISRDNSKNTLYLQMNSLRAEDTAVYYCARFSGWPNNYYYYGMDVWGQGTTVTVSSASTKGPEVQLVESGGGLVQPGGSLRLSCAASGYTFTNYGMNWVRQAPGKGLEWVGWINTYTGEPTYAADFKRRFTFSLDTSKSTAYLQMNSLRAEDTAVYYCAKYPHYYGSSHWYFDVWGQGTLVTVSS
# VL: DVVMTQSPLSLPVTPGEPASISCRSSQSLLHSNGFNYVDWYLQKPGQSPHLLIYFGSYRASGVPDRFSGSGSGTDFTLKISRVEAEDVGVYYCMQALQTPPWTFGQGTKVEIRRTVAAPDIQMTQSPSSLSASVGDRVTITCSASQDISNYLNWYQQKPGKAPKVLIYFTSSLHSGVPSRFSGSGSGTDFTLTISSLQPEDFATYYCQQYSTVPWTFGQGTKVEIKR
# notes: HC vector V1 (wild-type hIgG1 constant), LC vector V2 (kappa constant); also called DVD048H; DVD048L
# B6: DVD033 (RON (seq. 1) and HGF (seq. 1) DVD-Ig) (bispecific antibody, IgG1)
# VH: EVQLVQSGGGLVKPGGSLRLSCAASGFTFSSYAMHWVRQAPGKGLEWVAVISYDGSNKYYADSVKGRFTISRDNSKNTLYLQMNSLRAEDTAVYYCARFSGWPNNYYYYGMDVWGQGTTVTVSSASTKGPQVQLVESGGGLVKPGGSLRLSCAASGFTFSDYYMSWIRQAPGKGLEWVSYISSSGSTIYYADSVKGRFTISRDNAKNSLYLQMNSLRAEDTAVYYCARDEYNSGWYVLFDYWGQGTLVTVSS
# VL: DVVMTQSPLSLPVTPGEPASISCRSSQSLLHSNGFNYVDWYLQKPGQSPHLLIYFGSYRASGVPDRFSGSGSGTDFTLKISRVEAEDVGVYYCMQALQTPPWTFGQGTKVEIRRTVAAPDIQMTQSPSSVSASVGDRVTITCRASQGISSWLAWYQQKPGKAPNLLIYEASSLQSGVPSRFGGSGSGTDFTLTISSLQPEDFATYYCQQANGFPWTFGQGTKVEIKR
# notes: Outer AB005, inner AB012; HC vector V1 (wild-type hIgG1 constant), LC vector V2 (kappa constant); also called DVD033H; DVD033L
# B7: AB079 (antibody, human IgG1, kappa, V domains shown)
# VH: EVQLVQSGAEVKKPGESLKISCKGSGYSFTTYWMHWVRQMPGKGLEWMGEINPTNGHTNYNPSFQGQVTISADKSISTAYLQWSSLKASDTAMYYCARNYVGSIFDYWGQGTLVTVSS
# VL: DIQMTQSPSSLSASVGDRVTITCKASENVVSYVSWYQQKPGKAPKLLIYGASNRNTGVPSRFSGSGSGTDFTLTISSLQPEDFATYYCGQSYNYPYTFGQGTKLEIKR
# notes: Vectors V1/V2
# B8: AB047 (antibody, human IgG1, kappa, V domains shown)
# VH: QVQLQQSGAELVKPGASVKISCKASGYTFTDYYINWVKLAPGQGLEWIGWIYPGSGNTKYNEKFKGKATLTIDTSSSTAYMQLSSLTSEDTAVYFCVRDSPFFDYWGQGTLLTVSS
# VL: DIVLTQSPDSLAVSLGERVTMNCKSSQSLLNSGMRKSFLAWYQQKPGQSPKLLIYWASTRESGVPDRFTGSGSGTDFTLTISSVQAEDVAVYYCKQSYHLFTFGSGTKLEIKR
# B9: DVD046 (HGF (seq. 1) and VEGF (seq. 1) DVD-Ig) (bispecific antibody, IgG1)
# VH: QVQLVESGGGLVKPGGSLRLSCAASGFTFSDYYMSWIRQAPGKGLEWVSYISSSGSTIYYADSVKGRFTISRDNAKNSLYLQMNSLRAEDTAVYYCARDEYNSGWYVLFDYWGQGTLVTVSSASTKGPEVQLVESGGGLVQPGGSLRLSCAASGYTFTNYGMNWVRQAPGKGLEWVGWINTYTGEPTYAADFKRRFTFSLDTSKSTAYLQMNSLRAEDTAVYYCAKYPHYYGSSHWYFDVWGQGTLVTVSS
# VL: DIQMTQSPSSVSASVGDRVTITCRASQGISSWLAWYQQKPGKAPNLLIYEASSLQSGVPSRFGGSGSGTDFTLTISSLQPEDFATYYCQQANGFPWTFGQGTKVEIKRTVAAPDIQMTQSPSSLSASVGDRVTITCSASQDISNYLNWYQQKPGKAPKVLIYFTSSLHSGVPSRFSGSGSGTDFTLTISSLQPEDFATYYCQQYSTVPWTFGQGTKVEIKR
# notes: HC vector V1 (wild-type hIgG1 constant), LC vector V2 (kappa constant); also called DVD046L
# B10: AB074 (antibody, human IgG1, kappa, V domains shown)
# VH: QVQLKQSGPGLVQPSQSLSITCTVSGFSLTTYGIHWVRQSPGKGLEWLGVMWSGGDTDYDAAFISRLSISKDNSKSQVFFKMNSLQANDTGIYYCARYRFYGMDYWGQGTSVTVSS
# VL: AIQMTQSSSSFSVSLGDRVTITCKASEDIYNRFAWYQQKPGNAPRLLISGAASLEAGVPSRFSGSGSGQDYTLSITSLQTEDVATYYCQQYWSTPWTFGGGTKLEIKR
# B11: DVD045 (VEGF (seq. 1) and HGF (seq. 1) DVD-Ig) (bispecific antibody, IgG1)
# VH: EVQLVESGGGLVQPGGSLRLSCAASGYTFTNYGMNWVRQAPGKGLEWVGWINTYTGEPTYAADFKRRFTFSLDTSKSTAYLQMNSLRAEDTAVYYCAKYPHYYGSSHWYFDVWGQGTLVTVSSASTKGPQVQLVESGGGLVKPGGSLRLSCAASGFTFSDYYMSWIRQAPGKGLEWVSYISSSGSTIYYADSVKGRFTISRDNAKNSLYLQMNSLRAEDTAVYYCARDEYNSGWYVLFDYWGQGTLVTVSS
# VL: DIQMTQSPSSLSASVGDRVTITCSASQDISNYLNWYQQKPGKAPKVLIYFTSSLHSGVPSRFSGSGSGTDFTLTISSLQPEDFATYYCQQYSTVPWTFGQGTKVEIKRTVAAPDIQMTQSPSSVSASVGDRVTITCRASQGISSWLAWYQQKPGKAPNLLIYEASSLQSGVPSRFGGSGSGTDFTLTISSLQPEDFATYYCQQANGFPWTFGQGTKVEIKR
# notes: HC vector V1 (wild-type hIgG1 constant), LC vector V2 (kappa constant); also called DVD045H; DVD045L
# B12: DVD047 (VEGF (seq. 1) and RON (seq. 1) DVD-Ig) (bispecific antibody, IgG1)
# VH: EVQLVESGGGLVQPGGSLRLSCAASGYTFTNYGMNWVRQAPGKGLEWVGWINTYTGEPTYAADFKRRFTFSLDTSKSTAYLQMNSLRAEDTAVYYCAKYPHYYGSSHWYFDVWGQGTLVTVSSASTKGPEVQLVQSGGGLVKPGGSLRLSCAASGFTFSSYAMHWVRQAPGKGLEWVAVISYDGSNKYYADSVKGRFTISRDNSKNTLYLQMNSLRAEDTAVYYCARFSGWPNNYYYYGMDVWGQGTTVTVSS
# VL: DIQMTQSPSSLSASVGDRVTITCSASQDISNYLNWYQQKPGKAPKVLIYFTSSLHSGVPSRFSGSGSGTDFTLTISSLQPEDFATYYCQQYSTVPWTFGQGTKVEIKRTVAAPDVVMTQSPLSLPVTPGEPASISCRSSQSLLHSNGFNYVDWYLQKPGQSPHLLIYFGSYRASGVPDRFSGSGSGTDFTLKISRVEAEDVGVYYCMQALQTPPWTFGQGTKVEIRR
# notes: HC vector V1 (wild-type hIgG1 constant), LC vector V2 (kappa constant); also called DVD047H; DVD047L
# B13: AB062 (antibody, human IgG1, kappa, V domains shown)
# VH: QVQLQQWGAGLLKPSETLSLTCAVYGGSFSGYYWSWIRQPPGKGLEWIGEINHSGSTNYNPSLKSRVTISVETSKNQFSLKLSSVTAADTAVYYCARDKWTWYFDLWGRGTLVTVSS
# VL: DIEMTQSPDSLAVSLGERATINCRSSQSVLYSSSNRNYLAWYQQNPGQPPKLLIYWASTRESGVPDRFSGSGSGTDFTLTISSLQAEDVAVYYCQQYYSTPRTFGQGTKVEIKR
# B14: DVD034 (HGF (seq. 1) and RON (seq. 1) DVD-Ig) (bispecific antibody, IgG1)
# VH: QVQLVESGGGLVKPGGSLRLSCAASGFTFSDYYMSWIRQAPGKGLEWVSYISSSGSTIYYADSVKGRFTISRDNAKNSLYLQMNSLRAEDTAVYYCARDEYNSGWYVLFDYWGQGTLVTVSSASTKGPEVQLVQSGGGLVKPGGSLRLSCAASGFTFSSYAMHWVRQAPGKGLEWVAVISYDGSNKYYADSVKGRFTISRDNSKNTLYLQMNSLRAEDTAVYYCARFSGWPNNYYYYGMDVWGQGTTVTVSS
# VL: DIQMTQSPSSVSASVGDRVTITCRASQGISSWLAWYQQKPGKAPNLLIYEASSLQSGVPSRFGGSGSGTDFTLTISSLQPEDFATYYCQQANGFPWTFGQGTKVEIKRTVAAPDVVMTQSPLSLPVTPGEPASISCRSSQSLLHSNGFNYVDWYLQKPGQSPHLLIYFGSYRASGVPDRFSGSGSGTDFTLKISRVEAEDVGVYYCMQALQTPPWTFGQGTKVEIRR
# notes: Outer AB012, inner AB005; HC vector V1 (wild-type hIgG1 constant), LC vector V2 (kappa constant); also called DVD034L
# Tests used:
# IGF2 = IGF2 (UniProt P01344 25-91); test: cell-based or functional assay
# hIGF1 = hIGF1 (human, UniProt P05019 49-118); test: cell-based or functional assay
# biotinylated ErbB3 = biotinylated ErbB3 (UniProt P21860 20-643, limits assumed, biotinylated); test: capture ELISA, antibody captured by anti-human IgG Fc, biotinylated ErbB3
# Procedure: The plates were washed with PBS containing 0.05% Tween 20 three times and blocked with 200 μl/well of 1% BSA/PBS for 1 hour at room temperature. Fifty μl of 5 nM DVD-Ig or antibody were added to each well and incubated for 1 hour at room temperature. […] The wells were washed three times, and 100 μl of ULTRA-TMB ELISA (Pierce, Rockford, Ill.) were added per well.
# HGF-His tag = target: T2, HGF-His tag (UniProt P14210 32-728); test: direct bind ELISA (ref Ab)
# T2 construct: Bought antigen coated on the ELISA plate; not shown: His tag
# [1] = target: T3, RON (MSP Receptor ECD-His tag) (UniProt Q04912 25-957, limits assumed); test: Direct Bind ELISA, antigen on plate; N-terminal VD
# T3 construct: extracellular domain; Bought reagent
# Procedure: (§1) Enzyme Linked Immunosorbent Assays to screen for antibodies that bind a desired target antigen were performed as follows. […] Plates were washed four times with PBS containing 0.02% Tween 20. Plates were blocked by the addition of 300 μL/well blocking solution (non-fat dry milk powder, various retail suppliers, diluted to 2% in PBS) for ½ hour at room temperature. Plates were washed four times after blocking with PBS containing 0.02% Tween 20.
# (§2) Alternatively, one hundred microliters per well of 10 μg/ml of Histidine (His) tagged desired target antigen (R&D Systems, Minneapolis, Minn.) was added to ELISA plates coated with monoclonal mouse anti-polyHistidine antibody as described above and incubated for 1 hour at room temperature. Wells were washed four times with PBS containing 0.02% Tween 20.
# (§3) One hundred microliters of antibody or DVD-Ig preparations diluted in blocking solution as described above was added to the desired target antigen plate or desired target antigen/FC fusion plate or the anti-polyHistidine antibody/His tagged desired target antigen plate prepared as described above and incubated for 1 hour at room temperature. Wells are washed four times with PBS containing 0.02% Tween 20.
# HGF (HGF-His tag) [2] = target: T4, HGF (HGF-His tag) (UniProt P14210 32-728); test: Direct Bind ELISA, antigen on plate; C-terminal VD
# T4 construct: Bought reagent
# Procedure: as §1, §2, §3
# PlGF = target: T1, PlGF; test: direct bind ELISA, reference antibody
# HGF (HGF-His tag) [3] = target: T4, HGF (HGF-His tag); test: Direct Bind ELISA, antigen on plate; N-terminal VD
# Procedure: as §1, §2, §3
# [4] = target: T3, RON (MSP Receptor ECD-His tag); test: Direct Bind ELISA, antigen on plate; C-terminal VD
# Procedure: as §1, §2, §3
# T2 sequence (P14210 32-728 limits assumed): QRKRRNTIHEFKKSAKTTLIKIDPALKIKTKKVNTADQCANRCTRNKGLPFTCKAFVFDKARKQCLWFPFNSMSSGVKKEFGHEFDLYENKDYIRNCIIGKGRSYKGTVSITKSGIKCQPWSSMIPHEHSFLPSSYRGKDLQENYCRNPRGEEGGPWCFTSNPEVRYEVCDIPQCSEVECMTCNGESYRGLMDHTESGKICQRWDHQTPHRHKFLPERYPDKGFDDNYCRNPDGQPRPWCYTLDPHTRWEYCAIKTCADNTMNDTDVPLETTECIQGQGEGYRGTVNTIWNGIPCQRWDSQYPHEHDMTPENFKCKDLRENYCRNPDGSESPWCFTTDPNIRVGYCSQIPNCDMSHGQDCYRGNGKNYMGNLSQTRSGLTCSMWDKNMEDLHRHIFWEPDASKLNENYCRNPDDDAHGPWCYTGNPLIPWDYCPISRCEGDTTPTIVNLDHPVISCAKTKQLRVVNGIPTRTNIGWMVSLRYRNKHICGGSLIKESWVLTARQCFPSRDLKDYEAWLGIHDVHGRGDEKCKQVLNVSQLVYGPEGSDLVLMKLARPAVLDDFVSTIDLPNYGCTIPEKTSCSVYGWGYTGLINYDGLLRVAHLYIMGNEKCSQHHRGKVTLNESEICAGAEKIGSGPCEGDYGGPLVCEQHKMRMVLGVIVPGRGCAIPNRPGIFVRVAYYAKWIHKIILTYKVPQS
# T4 sequence (P14210 32-728 limits assumed): as above
binder,measurement,setting,value
B1,C-terminal VD pIGFR1 Cellular Assay (IGF2 induced IC50 nM),IGF2,1.5 nM
same,C-terminal VD pIGF1R Cellular Assay (hIGF1 Neutralization IC50 nM),hIGF1,16.8 nM
B2,EC50,biotinylated ErbB3,0.67 nM
B3,EC50,HGF-His tag,0.15 nM and 0.17 nM and 0.16 nM
B4,pIGFR1 Cellular Assay (IGF2 induced IC50 nM),IGF2,0.3 nM
same,pIGF1R Cellular Assay (hIGF1 Neutralization IC50 nM),hIGF1,1.7 nM
B5,EC50,[1],0.46 nM
B6,EC50,[1],0.22 nM
same,EC50,HGF (HGF-His tag) [2],11.9 nM
B7,EC50,HGF-His tag,0.48 nM and 0.39 nM and 0.4 nM and 0.41 nM
B8,EC50,PlGF,0.13 nM and 0.14 nM and 0.17 nM
B9,EC50,HGF (HGF-His tag) [3],0.5 nM
B10,EC50,PlGF,0.49 nM
B11,EC50,HGF (HGF-His tag) [2],185 nM
B12,EC50,[4],94.8 nM
B13,EC50,biotinylated ErbB3,0.26 nM
B14,EC50,HGF (HGF-His tag) [3],0.27 nM
same,EC50,[4],116 nM
